Test in all cases: SPR
(In general: SPR reads the build-up and loss of mass on a sensor chip optically.)

The target in test [1] is his-tagged knob domain protein of HAdV-B7 fiber (Human adenovirus B7).
The target in test [2] is ALCAM protein, commercially available (Sino, Cat. No. 10045-H08H-100) (human) (UniProt Q13740).
Test [3] concerns the target his-tagged knob domain protein of HAdV-B7 fiber (Human adenovirus B7). The source holds these as a separate data set.

“And” between values parts separate entries of the source, which are not always exact repeats. Equal entries are not always repeated. Where two headings read alike, the source gives them in different places.

The Kd is the free concentration of one partner at which half of the binding sites on the other are occupied at equilibrium, for simple one-to-one binding. Lower therefore signals higher affinity.

In test [1], “DSG-2 protein (MCE, Cat. No. HY-P77917) (from UniProt Q14126 50-609) (receptor)” came in with a Kd of 2610 nM.
With “his-tagged knob domain protein of HAdV-B7 fiber (domain or fragment)”, the Kd in test [1] was 3470 nM; in test [2] it was 700 nM and 849 nM.

B1: ALCAM protein, commercially available (Sino, Cat. No. 10045-H08H-100) (receptor)
chain: WYTVNSAYGDTIIIPCRLDVPQNLMFGKWKYEKPDGSPVFIAFRSSTKKSVQYDDVPEYKDRLNLSENYTLSISNARISDEKRFVCMLVTEDNVFEAPTIVKVFKQPSKPEIVSKALFLETEQLKKLGDCISEDSYPDGNITWYRNGKVLHPLEGAVVIIFKKEMDPVTQLYTMTSTLEYKTTKADIQMPFTCSVTYYGPSGQKTIHSEQAVFDIYYPTEQVTIQVLPPKNAIKEGDNITLKCLGNGNPPPEEFLFYLPGQPEGIRSSNTYTLTDVRRNATGDYKCSLIDKKSMIASTAITVHYLDLSLNPSGEVTRQIGDALPVSCTISASRNATVVWMKDNIRLRSSPSFSSLHYQDAGNYVCETALQEVEGLKKRESLTLIVEGKPQIKMTKKTDPSGLSKTIICHVEGFPKPAIQWTITGSGSVINQTEESPYINGRYYSKIIISPEENVTLTCTAENQLERTVNSLNVSAISIPEHDEADEISDENREKVNDQAK
B1 came in with an equilibrium dissociation constant (Kd) in test [3] of 961 nM.
